# Measurements taken from the supplement of paper PMC12042874.
# ± gives the uncertainty stated by the source.
# Experiment: amyloid nucleation score (Sup35N fusion, yeast selection) (log enrichment); library NNK1; higher = more nucleation; inactive = no reads after selection
# In short: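 Output and input plasmid inserts were sequenced by Illumina after psi-negative yeast carrying Sup35N fused to peptides of 20 random codons had been induced 24 hours with 100 μM copper sulfate and grown 7 days at 30°C on medium lacking adenine and uracil. The nucleation score is the DiMSum log enrichment of output over input reads, centred on the mode score of non-aggregating sequences. Sequences with under 100 input reads were excluded.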
row,Substance,amyloid nucleation score
1,MRIRAKSALSVSLECDLQFL,0.655 ± 0.3
2,MRTVIITCCRTFECPMERCS,-2.56 ± 1.4
3,MRYIKSVVSSVCSYNLPLRA,0.525 ± 0.44
4,MSEFADTIMIVNGCGWRVVR,-0.039 ± 0.26
5,MSHWTMGREWITHLFSGHWG,0.945 ± 1.1
6,MSMVNKTSWCYLFCNLRVVY,-1.08 ± 0.86
7,MSNIVALHCGSFFTDYECIW,7.608 ± 0.046
8,MSRIVF,-0.003 ± 0.71
9,MSRMFRVLHRVLSSW,-0.538 ± 1.2
10,MSSESLSMGRLDMG,inactive
11,MSSLIVYLRDAPRVLNLYVR,2.5 ± 0.17
12,MTFVMHIAWG,1.55 ± 0.26
13,MTGINYRAVRCAEGCRASRR,0.216 ± 0.29
14,MTHAFLRWSYLFRNIWMHVF,0.349 ± 1.2
15,MTHLNPMSFVDPKFVPVDFS,2.48 ± 0.47
16,MTSCDWTTTKSSDVAPDWRM,0.424 ± 0.52
17,MVHCRQI,0.219 ± 0.32
18,MVLFKELIMVFTQARAS,0.156 ± 0.28
19,MVQAPLTSQPYNNGMVRQK,-0.055 ± 0.5
20,MVRWLNTSRKFT,1.06 ± 0.73
21,MWCLGLDIFRIRVYRCAGGG,-0.348 ± 0.28
22,MWEALW,0.601 ± 0.54

row,Substance,amyloid nucleation score
1,MWNRFWLLDALLWGNYLSQS,0.043 ± 0.33
2,MWRKHR,-0.543 ± 0.65
3,MWVYFVLCKKVAEGVCFIDT,0.996 ± 0.61
4,MYASWSVF,-0.223 ± 0.34
5,MYCGS,-0.279 ± 0.27
6,MYFVRVSSDA,0.351 ± 0.54
7,MYGITKSA,0.195 ± 0.64
8,MYREYLGRSRRQFYFGTGKH,3.82 ± 0.16
9,MYSLVCNHCAQSISIPSRWS,3.97 ± 0.11
10,NAVITESLIDKAPVGSNWDT,-0.498 ± 0.59
11,NAYLKVIYQRSFGAPNRH,-0.1 ± 0.69
12,NAYRYMCRCGFLSLRAGWRV,inactive
13,NCECSFWKREGSWGTLVSGM,0.201 ± 0.51
14,NCEFIVWGVSSNFEMVFGLM,-0.267 ± 0.9
15,NCFRLLCFRGLVGQRGL,0.141 ± 0.59
16,NCFSMRQRECCRYRMCVNGI,1.01 ± 0.55
17,NCRMTGCLSQRRQKECCNRI,-0.755 ± 0.51
18,NCVVYDIEYICWNIGGKI,5.71 ± 0.077
19,NCYGYVEKWWGVCTNDPLGR,-0.133 ± 0.25
20,NDDNCSSVSWWNKWCSTR,1.44 ± 0.41
21,NDHDGEFDD,0.239 ± 0.57
22,NDNGVMLVLCEGMY,0.014 ± 0.32

row,Substance,amyloid nucleation score
1,NDRLFLHGARKLTVLIFVVG,-0.015 ± 0.3
2,NDRSFYQITKILHPRDASQN,-1.08 ± 0.55
3,NDTVWVVWMLKELSLYVELV,0.329 ± 0.53
4,NDWIFD,inactive
5,NECDVALIRWWG,0.419 ± 0.45
6,NELNLYGSEFAFYWVDKLCH,4.13 ± 0.073
7,NFARDLKRHVRMG,0.461 ± 0.35
8,NFFVDDSDRGQYKFDPFCCG,inactive
9,NFGAQRYHSRLLL,-0.223 ± 0.59
10,NFGIRGRRTAGLEVRCLRRC,-1.22 ± 2.7
11,NFKQGNSYVCNSCLGCGVSR,6.45 ± 0.084
12,NFLCFGFFRWTVPDWAQFYV,3.76 ± 0.12
13,NFLMKWCEINTCLLVSFSYW,4.5 ± 0.071
14,NFPKHFSSALRF,-0.081 ± 0.35
15,NFRNLSYCFQFPMFVARRLK,1.06 ± 0.67
16,NFRNSGESSTNYSK,inactive
17,NFSFLGFLSRYGCLFQVSS,0.582 ± 0.6
18,NFSLIFENMIALFPYPARKR,7.742 ± 0.056
19,NFSRIKYYGSYEVFIFAGNY,0.398 ± 0.79
20,NFTSRYEANFTVFSFRAWRL,0.297 ± 0.36
21,NFVIFKRFFNFHKNWNGWSR,3.8 ± 0.07
22,NFVQLAWLVRWAWEV,-0.088 ± 0.56

row,Substance,amyloid nucleation score
1,NFVSYTFLCCGCVVLILVTS,0.114 ± 0.28
2,NGFSDRKLDFHTRHMGH,-0.147 ± 0.36
3,NGMIFFVIGMNFGCQESSRN,6.208 ± 0.051
4,NGNLKRSSEVFHCFGISLEF,0.694 ± 0.36
5,NGTWYILSQASFFYELDAYC,-0.012 ± 0.43
6,NGWIMRR,-0.094 ± 1.5
7,NGYIKRVFFSVNMFSMHTSF,0.079 ± 0.48
8,NHCFLVRWNISKSSRDVSWC,0.142 ± 0.47
9,NHHLRPEMQEVCHL,0.482 ± 0.67
10,NHVLVVGISNLSSCHWMPNF,3.14 ± 0.12
11,NHYCRFHFTLESFLAGHVAN,1.38 ± 0.23
12,NHYGSVAGLPPNNHWVSFCV,-0.373 ± 0.99
13,NIASGFGFPYRGVLSC,0.184 ± 1
14,NICMQTRVIRAS,0.811 ± 0.5
15,NIEIRVCSRIVGHGLKFPKP,3.37 ± 0.17
16,NIGIMNFIVLAFLQ,6.529 ± 0.062
17,NINFGVVSYSVYMLL,6.649 ± 0.054
18,NISPISYKIVVTIYSYFWLS,0.452 ± 0.4
19,NISSIASVWVCVKVRYVSYS,0.432 ± 0.59
